{"source": "paper PMC5440498", "target": "His-MBP-eYFP-PRDM9Cst-ZnF (Mus musculus castaneus (CAST/EiJ, Prdm9 Cst allele)) (UniProt Q96EQ9)", "sequence (Q96EQ9 whole entry)": "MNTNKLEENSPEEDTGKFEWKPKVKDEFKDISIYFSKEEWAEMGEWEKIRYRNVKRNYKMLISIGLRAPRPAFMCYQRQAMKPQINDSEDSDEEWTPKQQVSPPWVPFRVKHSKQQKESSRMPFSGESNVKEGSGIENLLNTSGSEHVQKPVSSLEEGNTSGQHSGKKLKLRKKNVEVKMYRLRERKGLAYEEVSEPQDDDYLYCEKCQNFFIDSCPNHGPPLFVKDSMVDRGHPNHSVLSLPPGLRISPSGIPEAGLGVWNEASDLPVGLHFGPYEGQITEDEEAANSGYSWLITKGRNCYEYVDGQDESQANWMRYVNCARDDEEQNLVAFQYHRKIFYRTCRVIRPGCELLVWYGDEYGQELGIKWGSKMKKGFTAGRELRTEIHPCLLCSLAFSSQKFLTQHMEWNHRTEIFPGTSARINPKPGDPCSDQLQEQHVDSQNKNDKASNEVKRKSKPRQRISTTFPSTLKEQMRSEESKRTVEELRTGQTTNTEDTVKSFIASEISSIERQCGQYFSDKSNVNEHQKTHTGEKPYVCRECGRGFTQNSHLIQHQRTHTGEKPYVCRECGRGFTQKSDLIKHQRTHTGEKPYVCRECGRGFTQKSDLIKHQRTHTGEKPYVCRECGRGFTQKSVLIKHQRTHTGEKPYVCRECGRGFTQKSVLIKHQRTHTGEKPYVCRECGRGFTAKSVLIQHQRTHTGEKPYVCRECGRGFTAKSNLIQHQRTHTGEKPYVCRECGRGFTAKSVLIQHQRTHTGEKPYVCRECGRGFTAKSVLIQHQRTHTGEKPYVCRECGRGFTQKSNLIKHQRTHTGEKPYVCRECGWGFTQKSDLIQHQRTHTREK", "test": "EMSA", "details": "2.5 uM protein, 15 nM DNA, 50 ng/ul polydIdC, EMSA (chimeras): 10 mM Tris-HCl pH 7.5, 50 mM KCl, 1 mM DTT, 0.05% NP-40, 50 uM ZnCl2, titration EMSA: low polydIdC plus 0.03% sarcosyl …"}
{"sequence": "GTGGGAGGAGATGGTGGGTGAATAGTGTGCAGACTTGGACCCTGCCCTTTCTTTACGCATTCCACTAACCATGGG (double strand) [Hlx1 B6 75 bp (hot)]", "values": [{"measurement": "binding signal", "value": 100, "unit": "% bound"}]}
